Results published in patent US20240058465A1 (SUTRO BIOPHARMA, published 2024).
Where a chain is given by its changes, count along the chain named.

B1: Conjugate 5 (D04-F404-LP8) (antibody, human IgG1, kappa)
heavy: MEVQLVESGGGLVQPGGSLRLSCAASGFNISDYDIHWVRQAPGKGLEWVGGIDPADGSTDYADSVKGRFTISADTSKNTAYLQMNSLRAEDTAVYYCARDYGVYDYWGQGTLVTVSSASTKGPSVFPLAPSSKSTSGGTAALGCLVKDYFPEPVTVSWNSGALTSGVHTFPAVLQSSGLYSLSSVVTVPSSSLGTQTYICNVNHKPSNTKVDKKVEPKSCDKTHTCPPCPAPELLGGPSVFLFPPKPKDTLMISRTPEVTCVVVDVSHEDPEVKFNWYVDGVEVHNAKTKPREEQYNSTYRVVSVLTVLHQDWLNGKEYKCKVSNKALPAPIEKTISKAKGQPREPQVYTLPPSREEMTKNQVSLTCLVKGFYPSDIAVEWESNGQPENNYKTTPPVLDSDGSFLYSKLTVDKSRWQQGNVFSCSVMHEALHNHYTQKSLSLSPGK
light: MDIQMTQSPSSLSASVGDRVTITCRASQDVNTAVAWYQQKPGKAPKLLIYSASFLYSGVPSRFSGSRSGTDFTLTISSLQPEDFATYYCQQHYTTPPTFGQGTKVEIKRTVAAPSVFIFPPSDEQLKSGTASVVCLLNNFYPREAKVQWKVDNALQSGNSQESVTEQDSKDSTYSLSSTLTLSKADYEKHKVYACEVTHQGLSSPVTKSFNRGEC
modifications: pAMF at F404 (EU), linked to LP8
B2: Conjugate 45 (D04-F404-LP28) (antibody, human IgG1, kappa)
heavy: B1 heavy
light: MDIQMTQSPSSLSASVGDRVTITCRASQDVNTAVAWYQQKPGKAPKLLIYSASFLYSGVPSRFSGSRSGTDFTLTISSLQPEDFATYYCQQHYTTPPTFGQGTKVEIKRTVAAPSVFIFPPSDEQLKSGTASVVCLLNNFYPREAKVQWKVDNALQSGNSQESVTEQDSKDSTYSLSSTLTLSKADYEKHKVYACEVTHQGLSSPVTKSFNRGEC
modifications: pAMF at F404 (EU), linked to LP28
B3: Conjugate 37 (D04-F404-LP33) (antibody, human IgG1, kappa)
heavy: B1 heavy
light: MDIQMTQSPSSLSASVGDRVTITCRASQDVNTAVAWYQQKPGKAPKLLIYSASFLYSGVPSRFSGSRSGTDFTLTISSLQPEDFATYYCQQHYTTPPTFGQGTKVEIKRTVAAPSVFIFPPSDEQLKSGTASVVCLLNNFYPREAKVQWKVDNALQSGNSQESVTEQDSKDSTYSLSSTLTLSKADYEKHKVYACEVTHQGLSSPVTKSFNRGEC
modifications: pAMF at F404 (EU), linked to LP33
B4: Conjugate 43 (D04-F404-LP26) (antibody, human IgG1, kappa)
heavy: B1 heavy
light: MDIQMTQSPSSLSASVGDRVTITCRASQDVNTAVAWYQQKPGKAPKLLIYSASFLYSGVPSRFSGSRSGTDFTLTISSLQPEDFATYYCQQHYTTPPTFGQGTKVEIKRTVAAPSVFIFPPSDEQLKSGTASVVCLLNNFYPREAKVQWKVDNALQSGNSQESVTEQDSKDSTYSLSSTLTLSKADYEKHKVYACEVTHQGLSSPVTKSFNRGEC
modifications: pAMF at F404 (EU), linked to LP26
B5: Conjugate 42 (D04-F404-LP25) (antibody, human IgG1, kappa)
heavy: B1 heavy
light: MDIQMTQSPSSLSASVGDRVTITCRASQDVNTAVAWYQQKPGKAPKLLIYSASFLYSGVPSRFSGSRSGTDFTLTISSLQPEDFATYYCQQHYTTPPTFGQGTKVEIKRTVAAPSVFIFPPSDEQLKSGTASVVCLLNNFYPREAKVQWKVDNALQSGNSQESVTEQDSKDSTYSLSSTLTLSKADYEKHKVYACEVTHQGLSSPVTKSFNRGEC
modifications: pAMF at F404 (EU), linked to LP25
B6: Conjugate 44 (D04-F404-LP27) (antibody, human IgG1, kappa)
heavy: B1 heavy
light: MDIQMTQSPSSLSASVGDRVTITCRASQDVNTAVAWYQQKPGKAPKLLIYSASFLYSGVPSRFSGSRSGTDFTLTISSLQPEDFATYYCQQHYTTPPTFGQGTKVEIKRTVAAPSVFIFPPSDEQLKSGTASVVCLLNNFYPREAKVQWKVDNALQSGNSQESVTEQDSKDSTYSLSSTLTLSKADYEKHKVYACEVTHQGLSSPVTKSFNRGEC
modifications: pAMF at F404 (EU), linked to LP27
B7: Conjugate 41 (D04-F404-LP24) (antibody, human IgG1, kappa)
heavy: B1 heavy
light: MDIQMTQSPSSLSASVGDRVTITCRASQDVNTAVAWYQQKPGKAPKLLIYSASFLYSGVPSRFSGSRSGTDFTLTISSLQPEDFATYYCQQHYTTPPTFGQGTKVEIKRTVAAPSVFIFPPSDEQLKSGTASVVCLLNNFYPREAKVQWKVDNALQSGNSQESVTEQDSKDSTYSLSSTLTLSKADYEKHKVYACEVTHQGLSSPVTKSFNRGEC
modifications: pAMF at F404 (EU), linked to LP24
B8: SRP2193-E05 (antibody, IgG1, V domains shown)
VH: EVQLVESGGGLVQPGGSLRLSCAASGFNIKRSYIHWVRQAPGKGLEWVVSIDPNGSSTHYADSVKGRFTISADTSKNTAYLQMNSLRAEDTAVYYCARSRWFRVLWSYVLDYWGQGTLVTVSS
VL: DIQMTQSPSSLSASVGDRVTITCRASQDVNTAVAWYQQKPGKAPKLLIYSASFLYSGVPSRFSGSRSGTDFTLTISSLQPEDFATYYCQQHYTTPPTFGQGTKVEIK
notes: His/FLAG-tagged IgG1, cell-free; also called Antibody 84
B9: SRP2193-D06 (antibody, IgG1, V domains shown)
VH: B8 VH with K30R, R31D, S32Y, V49R, S50A, N54H, G55S, S56G, H59V, L110F
VL: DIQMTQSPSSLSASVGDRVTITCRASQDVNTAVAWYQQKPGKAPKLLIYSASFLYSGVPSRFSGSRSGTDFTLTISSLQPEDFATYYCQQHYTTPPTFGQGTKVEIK
notes: His/FLAG-tagged IgG1, cell-free; also called Antibody 80
B10: SRP2193-E06 (antibody, IgG1, V domains shown)
VH: EVQLVESGGGLVRPGGSLRLSCAASGFNIDDYYIHWVRQAPGKGLEWVGVIDPKNGSTVYADSVKGRSTISADTPKSTAYLQMNSLRAEDTAVYYCARSRWFRVLWSYVFDYWGQGTLVTVSS
VL: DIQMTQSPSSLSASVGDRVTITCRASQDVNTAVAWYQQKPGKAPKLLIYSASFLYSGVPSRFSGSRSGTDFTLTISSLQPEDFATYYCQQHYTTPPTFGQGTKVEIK
notes: His/FLAG-tagged IgG1, cell-free; also called Antibody 73
B11: SRP2193-A01 (antibody, IgG1, V domains shown)
VH: B10 VH with R13Q, D30N, Y32H, V50A, K54T, N55S, Y60F, S68F, P75S, S77N
VL: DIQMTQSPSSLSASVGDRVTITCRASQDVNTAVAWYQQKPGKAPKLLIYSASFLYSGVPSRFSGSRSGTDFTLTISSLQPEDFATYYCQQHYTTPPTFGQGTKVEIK
notes: His/FLAG-tagged IgG1, cell-free
B12: SRP2193-A02 (antibody, IgG1, V domains shown)
VH: EVQLVESGGGLVQPGGSLRLSCAASGFNIHASYIHWVRQAPGKGLEWVGAIDPKSGSTYYADSVKGRFTISADTSKNTAYLQMNSLRAEDTAVYYCARSRWLRVLWSYIFDYWGQGTLVTVSS
VL: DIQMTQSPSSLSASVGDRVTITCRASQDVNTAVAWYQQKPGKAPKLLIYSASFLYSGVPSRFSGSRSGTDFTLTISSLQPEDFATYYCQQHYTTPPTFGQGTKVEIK
notes: His/FLAG-tagged IgG1, cell-free; also called Antibody 83
B13: SRP2193-A06 (antibody, IgG1, V domains shown)
VH: B12 VH with H30N, S32Y, G49D, K54D, Y59H, Y60N, L102F
VL: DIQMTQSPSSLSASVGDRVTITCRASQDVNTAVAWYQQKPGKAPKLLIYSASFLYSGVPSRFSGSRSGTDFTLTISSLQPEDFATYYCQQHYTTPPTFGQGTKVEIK
notes: His/FLAG-tagged IgG1, cell-free; also called Antibody 85
B14: SRP2193-A03 (antibody, IgG1, V domains shown)
VH: B12 VH with H30A, A31N, S32Y, Y33H, Y59V, Y60H, L102S, S107T, I109V
VL: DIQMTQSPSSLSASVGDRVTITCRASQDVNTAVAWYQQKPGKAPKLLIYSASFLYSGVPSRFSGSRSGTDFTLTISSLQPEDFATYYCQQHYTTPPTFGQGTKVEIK
notes: as for B11
B15: SRP2193-A04 (antibody, IgG1, V domains shown)
VH: B12 VH with H30I, A31S, S32Y, K54N, Y59L, Y60L, L102F, I109V, F110Y
VL: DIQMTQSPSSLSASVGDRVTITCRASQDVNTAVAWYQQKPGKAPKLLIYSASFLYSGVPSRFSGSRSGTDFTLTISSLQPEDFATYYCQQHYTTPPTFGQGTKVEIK
notes: as for B11
B16: SRP2193-A07 (antibody, IgG1, V domains shown)
VH: B12 VH with H30N, Y33D, E46G, K54N, S55T, S57T, Y59N, L102F, I109V
VL: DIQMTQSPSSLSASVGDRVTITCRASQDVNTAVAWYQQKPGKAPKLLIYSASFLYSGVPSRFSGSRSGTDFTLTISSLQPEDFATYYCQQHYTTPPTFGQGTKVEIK
notes: His/FLAG-tagged IgG1, cell-free; also called Antibody 97
B17: SRP2193-A08 (antibody, IgG1, V domains shown)
VH: B12 VH with H30I, A31D, K54N, S55A, Y59V, K65R, L81I, L102F, I109V
VL: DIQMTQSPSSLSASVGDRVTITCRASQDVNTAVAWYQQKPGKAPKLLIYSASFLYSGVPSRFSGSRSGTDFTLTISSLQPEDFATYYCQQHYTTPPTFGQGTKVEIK
notes: His/FLAG-tagged IgG1, cell-free; also called Antibody 112
B18: SRP2193-A05 (antibody, IgG1, V domains shown)
VH: B8 VH with R31G, S32Y, V49S, S50V, G55S, S56G, H59I, Y60F
VL: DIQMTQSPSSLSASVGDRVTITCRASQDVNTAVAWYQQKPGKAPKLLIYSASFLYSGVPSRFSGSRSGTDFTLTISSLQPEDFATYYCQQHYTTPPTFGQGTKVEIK
notes: His/FLAG-tagged IgG1, cell-free; also called Antibody 116
B19: SRP2193-A09 (antibody, IgG1, V domains shown)
VH: B12 VH with H30G, A31K, S32H, Y33H, A50V, S55G, Y59V, L102S, I109V
VL: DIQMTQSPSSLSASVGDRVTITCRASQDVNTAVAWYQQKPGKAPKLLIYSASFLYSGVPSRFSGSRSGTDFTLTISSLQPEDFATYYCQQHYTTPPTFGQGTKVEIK
notes: His/FLAG-tagged IgG1, cell-free; also called Antibody 94
B20: Conjugate 1 (2188-D04-Y180/F404-LP1) (antibody, human IgG1, kappa)
heavy: MEVQLVESGGGLVQPGGSLRLSCAASGFNISDYDIHWVRQAPGKGLEWVGGIDPADGSTDYADSVKGRFTISADTSKNTAYLQMNSLRAEDTAVYYCARDYGVYDYWGQGTLVTVSSASTKGPSVFPLAPSSKSTSGGTAALGCLVKDYFPEPVTVSWNSGALTSGVHTFPAVLQSSGLSLSSVVTVPSSSLGTQTYICNVNHKPSNTKVDKKVEPKSCDKTHTCPPCPAPELLGGPSVFLFPPKPKDTLMISRTPEVTCVVVDVSHEDPEVKFNWYVDGVEVHNAKTKPREEQYNSTYRVVSVLTVLHQDWLNGKEYKCKVSNKALPAPIEKTISKAKGQPREPQVYTLPPSREEMTKNQVSLTCLVKGFYPSDIAVEWESNGQPENNYKTTPPVLDSDGSFLYSKLTVDKSRWQQGNVFSCSVMHEALHNHYTQKSLSLSPGK
light: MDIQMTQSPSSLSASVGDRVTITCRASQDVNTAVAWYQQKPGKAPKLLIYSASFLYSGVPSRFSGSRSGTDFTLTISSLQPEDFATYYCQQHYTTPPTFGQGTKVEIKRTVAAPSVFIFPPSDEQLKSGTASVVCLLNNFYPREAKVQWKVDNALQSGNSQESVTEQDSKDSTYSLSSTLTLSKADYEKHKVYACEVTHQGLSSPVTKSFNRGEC
modifications: pAMF at HC-Y180 and HC-F404 (the * of the entry), conjugated to LP1 (DBCO-Valcit-pAB-hemiasterlin)
B21: Conjugate 4 (2188-D04-Y180/F404/K42/E161-LP1) (antibody, human IgG1, kappa)
heavy: B20 heavy
light: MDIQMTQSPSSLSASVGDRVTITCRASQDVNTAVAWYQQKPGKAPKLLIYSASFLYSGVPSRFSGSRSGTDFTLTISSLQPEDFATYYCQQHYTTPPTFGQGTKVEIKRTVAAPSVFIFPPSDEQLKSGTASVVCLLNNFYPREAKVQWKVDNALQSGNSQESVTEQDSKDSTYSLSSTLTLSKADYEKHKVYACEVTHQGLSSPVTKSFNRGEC
modifications: pAMF in place of LC-K42 and LC-E161 (Kabat numbering), conjugated to LP1; pAMF at HC-Y180 and HC-F404 (the * of the entry), conjugated to LP1
B22: Conjugate 2 (2188-D04-Y180/F404/K42-LP1) (antibody, human IgG1, kappa)
heavy: B20 heavy
light: MDIQMTQSPSSLSASVGDRVTITCRASQDVNTAVAWYQQKPGAPKLLIYSASFLYSGVPSRFSGSRSGTDFTLTISSLQPEDFATYYCQQHYTTPPTFGQGTKVEIKRTVAAPSVFIFPPSDEQLKSGTASVVCLLNNFYPREAKVQWKVDNALQSGNSQESVTEQDSKDSTYSLSSTLTLSKADYEKHKVYACEVTHQGLSSPVTKSFNRGEC
modifications: pAMF at LC-K42 (the * of the entry), conjugated to LP1; pAMF at HC-Y180 and HC-F404 (the * of the entry), conjugated to LP1
B23: Conjugate 6 (2188-D04-Y180/F404-LP10) (antibody, human IgG1, kappa)
heavy: B20 heavy
light: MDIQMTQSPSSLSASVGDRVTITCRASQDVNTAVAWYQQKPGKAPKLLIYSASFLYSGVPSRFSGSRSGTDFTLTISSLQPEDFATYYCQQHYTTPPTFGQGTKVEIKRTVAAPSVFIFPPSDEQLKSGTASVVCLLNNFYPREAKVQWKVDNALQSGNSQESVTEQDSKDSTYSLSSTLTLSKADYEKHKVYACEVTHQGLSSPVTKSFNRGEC
modifications: pAMF at HC-Y180 and HC-F404 (the * of the entry), conjugated to LP10 (DBCO-PEG4-GGFG-aminol-Dxd)
B24: Conjugate 7 (2188-D04-Y180/F404/K42/E161-LP10) (antibody, human IgG1, kappa)
heavy: B20 heavy
light: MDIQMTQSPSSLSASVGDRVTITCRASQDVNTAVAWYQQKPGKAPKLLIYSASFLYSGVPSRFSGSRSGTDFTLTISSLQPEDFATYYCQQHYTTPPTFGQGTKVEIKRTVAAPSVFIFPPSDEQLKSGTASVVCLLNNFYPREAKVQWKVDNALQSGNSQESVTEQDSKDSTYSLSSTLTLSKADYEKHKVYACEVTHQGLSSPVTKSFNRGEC
modifications: pAMF in place of LC-K42 and LC-E161 (Kabat numbering), conjugated to LP10; pAMF at HC-Y180 and HC-F404 (the * of the entry), conjugated to LP10
B25: Conjugate 5 (2188-D04-F404-LP8) (antibody, human IgG1, kappa)
heavy: B1 heavy
light: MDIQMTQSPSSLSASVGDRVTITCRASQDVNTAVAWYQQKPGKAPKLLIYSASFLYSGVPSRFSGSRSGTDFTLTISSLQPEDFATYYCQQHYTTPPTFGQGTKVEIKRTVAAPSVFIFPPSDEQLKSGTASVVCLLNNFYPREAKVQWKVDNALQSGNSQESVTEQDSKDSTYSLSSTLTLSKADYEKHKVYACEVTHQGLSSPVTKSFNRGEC
modifications: pAMF at HC-F404 (the * of the entry), conjugated to LP8 (DBCO-GGG-EDA PNU)

target: T1, receptor tyrosine kinase orphan receptor 1 (ROR1) on Ntera-2 cells (human, UniProt Q01973 30-937); assay: cell-based or functional assay

Binder	cell killing EC50, NTERA-2 cells	cell killing Span, NTERA-2 cells
B1	0.021 nM	85%

target: T1, receptor tyrosine kinase orphan …; assay: cell-based or functional assay; remark: another data set of the same source

Binder	cell killing EC50, NTERA-2 cells	cell killing Span, NTERA-2 cells
B2	> 10 nM	< 10%
B3	0.01 nM	89%
B4	> 10 nM	< 10%
B5	0.075 nM	58%
B6	0.017 nM	80%
B1	0.013 nM	83%
B7	> 10 nM	< 10%

target: T2, human ROR1 (hROR1) (human, UniProt Q01973 30-937); assay: cell-based or functional assay

Binder	Mino Nb-PBD, drug-conjugated 2° antibody Cell Killing EC50	Mino Nb-PBD, drug-conjugated 2° antibody Cell Killing Span
B8	0.00034 nM	70%
B9	0.0057 nM	68%
B10	0.0025 nM	63%

target: T2, human ROR1 (hROR1); assay: flow cytometry, HCT116-hROR1 cells

Bmax (MFI)	Kd	Binder
18300 MFI	0.1 nM	B8
14300 MFI	0.28 nM	B9
14700 MFI	5.82 nM	B10

target: T2, human ROR1 (hROR1); assay: flow cytometry, HCT116-hROR1 cells; NSB = non-saturating binding

binding result	Binder
binds	B11
binds	B12
binds	B13
binds	B14
binds	B15
binds	B16
binds	B17
binds	B18
binds	B19

target: T3, human ROR1 Frizzled domain (hROR1-Fz) (human, UniProt Q01973 165-305); assay: SPR Biacore, IgG on anti-Fc, ROR1-Fz analyte
T3 construct: Acro Biosystems, made in HEK293
In short: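 Test antibodies captured on an anti-Fc surface (CM5 chip), then analyte bound for 180 s with 600 s dissociation at 25° C in HBS-EP+ buffer at 50 μL/min. Human ROR1 ECD, Frizzled or Kringle domain used as analyte; regeneration with 10 mM glycine pH 2.0.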

Kd	koff	kon	Binder
0.674 nM	0.000199 s⁻¹	295000 M⁻¹ s⁻¹	B8
101 nM	0.6 s⁻¹	5.94e+06 M⁻¹ s⁻¹	B9
2.23 nM	0.000246 s⁻¹	111000 M⁻¹ s⁻¹	B10

target: T2, human ROR1 (hROR1); assay: cell-based or functional assay; remark: another data set of the same source

Binder	cell killing on ROR1 positive NTERA-2 cells, EC50	cell killing on ROR1 positive NTERA-2 cells, Span
B20	> 10 nM	< 20%
B21	0.022 nM	63%
B22	0.082 nM	49%
B23	0.08 nM	53%
B24	0.048 nM	94%
B25	0.0101 nM	83%
